Results as given in patent US12072338B2, “Pharmaceutical peptides for the treatment of inflammatory diseases” (PROTAGONISTS LTD., priority 2007, dated 2024).

Legend:
GRO-β = target: T1, GRO-β (Homo sapiens, UniProt P19875); experiment: Micro-array analysis of chemokine binding peptides: GRO-β
T1 construct: purchased 300-39
T1 sequence (P19875 35-107): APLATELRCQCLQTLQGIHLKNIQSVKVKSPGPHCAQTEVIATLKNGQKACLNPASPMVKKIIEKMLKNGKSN
Protocol: (§1) (1) Printing: Chemokine (CK) solution (in water) was serially diluted with Print Reagent (GenTel BioSurfaces USA) to final concentrations of 50 μg and 25 μg/ml. BSA/BSA-Biotin control solutions (in water) were diluted with Print Reagent to 100 μg/ml. Amplified stock of M13 phage control (M13KEgIII Cloning Vector, New England Biolabs, Cat.No.E8101S) was stored in Tris Buffered Saline (TBS; pH7.5, 4° C.) and diluted with Print Reagent to the working titre (10^8 pfu/μl). An automated spotting robot (16 pin print tool, 0.4 mm head; BioRobotics, UK) was used to print the CK/BSA control/M13 control, 5 repeats per sample (CK 25 μg/ml and 50 μg/ml; BSA 100 μg/ml; M13 20 μl), on PATH Protein Microarray Slides (GenTel, Prod.No. 2-1005/-1025) at […], and 50-70% relative humidity. Printed micro-array slides were stored at Room Temperature (RT) or 4° C. for at least 24 h before use.
(§2) (2) Blocking: Block Buffer (500 μl/partition; PATHblock, GenTel, Prod.No. 2-1014) was applied to the slide for 1 hour at room temp (RT). After removal of Block Buffer, the slide was air dried for 25 minutes;
(§3) (3) Phage Presented Peptide Binding: Amplified recombinant phage stock was stored in TBS and diluted with Wash Buffer to working titer (10^7 pfu/μl). Recombinant phage suspension (300 μl) was applied per partition and incubated at RT for 1 hour with gentle agitation.
(§4) (4) First Washing: The slides were washed twice with Wash Buffer 300 μl/partition).
(§5) (5) Primary Antibody (Ab) Labeling: The slides were incubated with the Primary Ab (1 mg/ml diluted ×2500 (Wash Reagent), 300 μl; Mouse Anti-M13 monoclonal Ab; Amersham Biosciences, UK; Product Code 27-9420-01) for 45 minutes at RT.
(§6) (6) Second Washing: The slides were washed twice with Wash Buffer (300 μl/partition).
(§7) (7) Secondary Ab Labeling: The slides were incubated with Secondary Ab (1.5 mg/ml diluted ×5000 (Wash Reagent), 300 μl; Cy3-conjugated AffiniPure Goat Anti-Mouse IgG; Jackson ImmunoReserch Labs, USA; Product Code 115-165-062).
(§8) (8) Third Washing: The slides were washed twice with Wash Buffer (300 μl/partition).
(§9) (9) Rinse: the slides were rinsed twice with Rinse Buffer (PATHrinse, GenTel, Prod.No. 2-1018) then dried well.
(§10) (10) Scanning: The peptide-bound, labeled slide was scanned (Laser Intensity 80%, Gain 80%, Resolution 10 μm) with a ScanArray Life Scanner (Packard BioChip Technologies, USA).
(§11) (11) Analysis: Quantitative analysis of micro-array was performed by the SpotReader program of Niles Scientific (USA) and presented as Relative Fluorescence (RF) as a function of CK concentration. Micro-array readout (Cy3 fluorescence) was quantified to determine the relative binding affinities of a CBP for the CKs and by inference, the specificity of the CBP for binding to a CK.

IL-8 = experiment: Micro-array analysis of chemokine binding peptides: IL-8
Protocol: as §1, §2, §3, §4, §5, §6, §7, §8, §9, §10, §11

Mig = target: T2, Mig (Homo sapiens, UniProt Q07325); experiment: Micro-array analysis of chemokine binding peptides: Mig
T2 construct: purchased 300-26
T2 sequence (Q07325 23-125): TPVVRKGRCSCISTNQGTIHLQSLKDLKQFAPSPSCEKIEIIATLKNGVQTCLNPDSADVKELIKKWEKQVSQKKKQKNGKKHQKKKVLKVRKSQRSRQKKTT
Protocol: as §1, §2, §3, §4, §5, §6, §7, §8, §9, §10, §11

I-TAC = target: T3, I-TAC (Homo sapiens, UniProt O14625); experiment: Micro-array analysis of chemokine binding peptides: I-TAC
T3 construct: purchased 300-46
T3 sequence (O14625 22-94): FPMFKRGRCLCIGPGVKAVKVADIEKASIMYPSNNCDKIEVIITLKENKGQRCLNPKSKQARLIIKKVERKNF
Protocol: as §1, §2, §3, §4, §5, §6, §7, §8, §9, §10, §11

MCP-1 = target: T4, MCP-1 (Homo sapiens, UniProt P13500); experiment: Micro-array analysis of chemokine binding peptides: MCP-1
T4 construct: purchased 300-04
Protocol: as §1, §2, §3, §4, §5, §6, §7, §8, §9, §10, §11

MCP-2 = target: T5, MCP-2 (Homo sapiens, UniProt P80075); experiment: Micro-array analysis of chemokine binding peptides: MCP-2
T5 construct: purchased 300-15
T5 sequence (P80075 24-99): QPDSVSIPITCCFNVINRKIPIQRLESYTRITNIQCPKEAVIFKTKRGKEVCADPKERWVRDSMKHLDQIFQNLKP
Protocol: as §1, §2, §3, §4, §5, §6, §7, §8, §9, §10, §11

MCP-4 = target: T6, MCP-4 (Homo sapiens, UniProt Q99616); experiment: Micro-array analysis of chemokine binding peptides: MCP-4
T6 construct: purchased 300-24
Protocol: as §1, §2, §3, §4, §5, §6, §7, §8, §9, §10, §11

RANTES = target: T7, RANTES (Homo sapiens, UniProt P13501); experiment: Micro-array analysis of chemokine binding peptides: RANTES
T7 construct: purchased 300-06
T7 sequence (P13501 24-91): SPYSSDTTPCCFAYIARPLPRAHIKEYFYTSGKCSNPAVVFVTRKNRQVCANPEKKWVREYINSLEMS
Protocol: as §1, §2, §3, §4, §5, §6, §7, §8, §9, §10, §11

Eotaxin = target: T8, Eotaxin (Homo sapiens, UniProt P51671); experiment: Micro-array analysis of chemokine binding peptides: Eotaxin
T8 construct: purchased 300-21
Protocol: as §1, §2, §3, §4, §5, §6, §7, §8, §9, §10, §11

Eotaxin 2 = target: T9, Eotaxin 2 (Homo sapiens, UniProt O00175); experiment: Micro-array analysis of chemokine binding peptides: Eotaxin 2
T9 construct: purchased 300-33
T9 sequence (O00175 27-119): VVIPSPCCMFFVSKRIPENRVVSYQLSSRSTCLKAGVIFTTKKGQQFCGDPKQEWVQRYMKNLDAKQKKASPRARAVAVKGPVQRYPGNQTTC
Protocol: as §1, §2, §3, §4, §5, §6, §7, §8, §9, §10, §11

Eotaxin 3 = target: T10, Eotaxin 3 (Homo sapiens, UniProt Q9Y258); experiment: Micro-array analysis of chemokine binding peptides: Eotaxin 3
T10 construct: purchased 300-48
T10 sequence (Q9Y258 24-94): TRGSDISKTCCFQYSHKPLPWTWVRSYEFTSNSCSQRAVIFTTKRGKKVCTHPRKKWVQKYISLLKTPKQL
Protocol: as §1, §2, §3, §4, §5, §6, §7, §8, §9, §10, §11

BCA-1 = target: T11, BCA-1 (Homo sapiens, UniProt O43927); experiment: Micro-array analysis of chemokine binding peptides: BCA-1
T11 construct: purchased 300-47
T11 sequence (O43927 23-109): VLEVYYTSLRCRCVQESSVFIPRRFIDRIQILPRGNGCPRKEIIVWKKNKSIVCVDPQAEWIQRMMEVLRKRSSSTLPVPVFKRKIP
Protocol: as §1, §2, §3, §4, §5, §6, §7, §8, §9, §10, §11

TECK = target: T12, TECK (Homo sapiens, UniProt O15444); experiment: Micro-array analysis of chemokine binding peptides: TECK
T12 construct: purchased 300-45
T12 sequence (O15444 24-150): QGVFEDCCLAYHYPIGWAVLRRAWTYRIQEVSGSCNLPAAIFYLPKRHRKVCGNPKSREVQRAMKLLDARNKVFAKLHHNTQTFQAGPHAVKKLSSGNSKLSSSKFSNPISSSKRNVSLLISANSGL
Protocol: as §1, §2, §3, §4, §5, §6, §7, §8, §9, §10, §11

Lymphotactin = target: T13, Lymphotactin (Homo sapiens, UniProt P47992); experiment: Micro-array analysis of chemokine binding peptides: Lymphotactin
T13 construct: purchased 300-20
T13 sequence (P47992 22-114): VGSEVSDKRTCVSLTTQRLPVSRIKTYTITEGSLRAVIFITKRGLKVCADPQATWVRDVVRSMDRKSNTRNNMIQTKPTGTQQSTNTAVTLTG
Protocol: as §1, §2, §3, §4, §5, §6, §7, §8, §9, §10, §11

IP-10 = target: T14, IP-10 (Homo sapiens, UniProt P02778); experiment: Micro-array analysis of chemokine binding peptides: IP-10
T14 construct: purchased 300-12
T14 sequence (P02778 22-98): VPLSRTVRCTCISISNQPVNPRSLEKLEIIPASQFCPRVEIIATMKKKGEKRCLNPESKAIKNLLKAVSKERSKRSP
Protocol: as §1, §2, §3, §4, §5, §6, §7, §8, §9, §10, §11

I-309 = target: T15, I-309 (Homo sapiens, UniProt P22362); experiment: Micro-array analysis of chemokine binding peptides: I-309
T15 construct: purchased 300-37
T15 sequence (P22362 24-96): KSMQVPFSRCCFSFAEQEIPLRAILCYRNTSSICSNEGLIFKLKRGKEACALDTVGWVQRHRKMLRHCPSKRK
Protocol: as §1, §2, §3, §4, §5, §6, §7, §8, §9, §10, §11

SDF1-α = target: T16, SDF1-α (Homo sapiens, UniProt P48061); experiment: Micro-array analysis of chemokine binding peptides: SDF1-α
T16 construct: purchased 300-28a
Protocol: as §1, §2, §3, §4, §5, §6, §7, §8, §9, §10, §11

SDF1-β = target: T17, SDF1-β (Homo sapiens, UniProt P48061); experiment: Micro-array analysis of chemokine binding peptides: SDF1-β
T17 construct: purchased 300-28b
Protocol: as §1, §2, §3, §4, §5, §6, §7, §8, §9, §10, §11

Exodus-2 = target: T18, Exodus-2 (Homo sapiens, UniProt O00585); experiment: Micro-array analysis of chemokine binding peptides: Exodus-2
T18 construct: purchased 300-35
T18 sequence (O00585 24-134): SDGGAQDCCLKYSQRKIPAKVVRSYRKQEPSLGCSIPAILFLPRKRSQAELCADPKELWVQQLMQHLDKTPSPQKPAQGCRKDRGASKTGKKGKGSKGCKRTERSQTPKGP
Protocol: as §1, §2, §3, §4, §5, §6, §7, §8, §9, §10, §11

[1] = limit = start of the upper 75% of that peptide's response range

T8 sequence (P51671 24-97): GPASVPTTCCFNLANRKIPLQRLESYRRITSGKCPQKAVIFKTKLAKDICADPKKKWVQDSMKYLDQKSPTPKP
T4 sequence (P13500 24-99): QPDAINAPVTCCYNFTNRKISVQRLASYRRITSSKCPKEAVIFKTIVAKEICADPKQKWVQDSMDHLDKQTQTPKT
T6 sequence (Q99616 17-98): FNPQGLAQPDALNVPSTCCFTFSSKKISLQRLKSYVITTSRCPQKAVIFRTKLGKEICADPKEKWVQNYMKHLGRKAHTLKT
Chain of IL-8 (P10145 28-99 limits assumed): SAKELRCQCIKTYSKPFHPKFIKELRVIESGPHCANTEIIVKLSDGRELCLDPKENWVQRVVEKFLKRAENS
T17 sequence (P48061 22-93): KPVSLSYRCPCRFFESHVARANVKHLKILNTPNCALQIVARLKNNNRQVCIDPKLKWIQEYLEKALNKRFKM
T16 sequence (P48061 22-89 limits assumed): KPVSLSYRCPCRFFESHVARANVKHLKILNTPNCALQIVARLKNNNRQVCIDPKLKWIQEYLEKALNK

Row | Sequence | binding to GRO-β, stated in words (GRO-β) | binding to IL-8, stated in words (IL-8) | binding to MCP-1, stated in words (MCP-1) | binding to MCP-4, stated in words (MCP-4) | binding to Eotaxin, stated in words (Eotaxin) | binding to Eotaxin 2, stated in words (Eotaxin 2) | binding to Eotaxin 3, stated in words (Eotaxin 3) | binding to BCA-1, stated in words (BCA-1) | binding to TECK, stated in words (TECK) | binding to Lymphotactin, stated in words (Lymphotactin) | binding to Mig, stated in words (Mig) | binding to I-TAC, stated in words (I-TAC) | other results
1 | DRYLNIVHAT [Ph-p18] | bound | bound | bound | bound | bound | bound | bound | bound | bound | bound |  |  | binding to Mig with relatively high affinity (Relative Fluorescence Units) (Mig; [1]): > 9,000 RFU; binding to I-TAC with relatively high affinity (Relative Fluorescence Units) (I-TAC; [1]): > 9,000 RFU; binding to MCP-2, stated in words (MCP-2): bound; binding to RANTES, stated in words (RANTES): bound
2 | HYTCSSHFP [Ph-p17] | bound | bound | bound | bound | bound |  | bound |  | bound | bound | bound | bound | 
3 | WVFGAAACK [Ph-p8.6] |  |  |  |  | bound | bound | bound | bound | bound | bound | bound | bound | binding to IP-10, stated in words (IP-10): bound; binding to I-309, stated in words (I-309): bound; binding to MCP-1 with relatively high affinity (Relative Fluorescence Units) (MCP-1; [1]): > 15,000 RFU; binding to MCP-2 with relatively high affinity (Relative Fluorescence Units) (MCP-2; [1]): > 15,000 RFU; binding to MCP-4 with relatively high affinity (Relative Fluorescence Units) (MCP-4; [1]): > 15,000 RFU; binding to SDF1-α, stated in words (SDF1-α): bound; binding to SDF1-β, stated in words (SDF1-β): bound; binding to Exodus-2, stated in words (Exodus-2): bound
